T1: GST fused to the N-terminal region (aa 1–168) of Scc1 (Saccharomyces cerevisiae (strain ATCC …, UniProt Q12158))
T1 chain: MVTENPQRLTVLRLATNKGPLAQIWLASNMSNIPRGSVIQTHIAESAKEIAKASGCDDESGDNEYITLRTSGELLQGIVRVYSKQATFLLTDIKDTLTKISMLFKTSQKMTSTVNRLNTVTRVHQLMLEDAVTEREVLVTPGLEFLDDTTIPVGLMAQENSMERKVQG

T2: GST fused to the C-terminal region (aa 338–566) of Scc1 (Saccharomyces cerevisiae (strain ATCC …, UniProt Q12158))
T2 chain: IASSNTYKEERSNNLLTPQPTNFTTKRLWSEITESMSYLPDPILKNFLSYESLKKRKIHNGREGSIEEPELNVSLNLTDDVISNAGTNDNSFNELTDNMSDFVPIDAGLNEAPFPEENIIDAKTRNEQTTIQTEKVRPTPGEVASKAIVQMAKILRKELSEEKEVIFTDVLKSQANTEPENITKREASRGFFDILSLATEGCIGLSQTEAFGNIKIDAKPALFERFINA

T3: Pds5, recombinant, His6-tagged (S. cerevisiae (budding yeast), UniProt Q04264 1-1277)
T3 construct: also called His6-tagged Pds5; source: E. coli BL21 (DE3) RIL, purified (Ni-NTA, gel filtration); not shown: His6, C-terminal, kept
T3 sequence (looked up): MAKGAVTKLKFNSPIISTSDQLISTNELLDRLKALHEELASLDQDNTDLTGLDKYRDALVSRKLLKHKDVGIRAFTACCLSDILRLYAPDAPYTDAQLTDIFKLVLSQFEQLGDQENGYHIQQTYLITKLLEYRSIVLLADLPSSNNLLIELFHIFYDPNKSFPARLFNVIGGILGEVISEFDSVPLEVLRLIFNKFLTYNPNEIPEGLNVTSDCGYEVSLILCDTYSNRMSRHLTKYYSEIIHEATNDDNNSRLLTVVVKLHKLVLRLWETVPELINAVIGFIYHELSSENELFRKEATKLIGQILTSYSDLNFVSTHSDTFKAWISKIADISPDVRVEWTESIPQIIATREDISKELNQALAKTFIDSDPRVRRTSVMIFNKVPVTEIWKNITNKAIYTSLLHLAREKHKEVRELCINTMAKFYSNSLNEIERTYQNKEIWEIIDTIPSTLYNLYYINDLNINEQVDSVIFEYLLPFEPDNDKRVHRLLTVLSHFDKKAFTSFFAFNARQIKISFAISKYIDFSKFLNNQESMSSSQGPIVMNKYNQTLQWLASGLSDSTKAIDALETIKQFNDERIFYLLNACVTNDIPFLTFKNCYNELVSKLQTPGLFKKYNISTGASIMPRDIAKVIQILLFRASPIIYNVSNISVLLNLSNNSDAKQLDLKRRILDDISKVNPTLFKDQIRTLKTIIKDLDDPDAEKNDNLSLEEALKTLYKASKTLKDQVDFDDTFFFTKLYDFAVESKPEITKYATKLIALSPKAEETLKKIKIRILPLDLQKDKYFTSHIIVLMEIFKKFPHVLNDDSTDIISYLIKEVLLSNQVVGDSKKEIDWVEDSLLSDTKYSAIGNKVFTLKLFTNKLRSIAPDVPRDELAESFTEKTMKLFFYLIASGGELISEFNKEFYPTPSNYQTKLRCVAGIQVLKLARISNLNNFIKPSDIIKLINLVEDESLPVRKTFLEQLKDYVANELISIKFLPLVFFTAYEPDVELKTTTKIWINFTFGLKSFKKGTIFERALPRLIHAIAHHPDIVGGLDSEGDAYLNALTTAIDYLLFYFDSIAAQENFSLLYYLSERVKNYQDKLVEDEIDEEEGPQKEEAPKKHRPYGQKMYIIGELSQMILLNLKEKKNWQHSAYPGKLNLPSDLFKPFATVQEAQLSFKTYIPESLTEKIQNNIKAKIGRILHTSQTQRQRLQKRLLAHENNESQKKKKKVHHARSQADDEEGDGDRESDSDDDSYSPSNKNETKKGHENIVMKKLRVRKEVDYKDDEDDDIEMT

T4: Scc3, recombinant, His6-tagged (S. cerevisiae (budding yeast), UniProt P40541 1-1150)
T4 construct: also called His6-tagged Scc3; source: E. coli BL21 (DE3) RIL, purified (Ni-NTA, gel filtration); not shown: His6, C-terminal, kept
T4 sequence (looked up): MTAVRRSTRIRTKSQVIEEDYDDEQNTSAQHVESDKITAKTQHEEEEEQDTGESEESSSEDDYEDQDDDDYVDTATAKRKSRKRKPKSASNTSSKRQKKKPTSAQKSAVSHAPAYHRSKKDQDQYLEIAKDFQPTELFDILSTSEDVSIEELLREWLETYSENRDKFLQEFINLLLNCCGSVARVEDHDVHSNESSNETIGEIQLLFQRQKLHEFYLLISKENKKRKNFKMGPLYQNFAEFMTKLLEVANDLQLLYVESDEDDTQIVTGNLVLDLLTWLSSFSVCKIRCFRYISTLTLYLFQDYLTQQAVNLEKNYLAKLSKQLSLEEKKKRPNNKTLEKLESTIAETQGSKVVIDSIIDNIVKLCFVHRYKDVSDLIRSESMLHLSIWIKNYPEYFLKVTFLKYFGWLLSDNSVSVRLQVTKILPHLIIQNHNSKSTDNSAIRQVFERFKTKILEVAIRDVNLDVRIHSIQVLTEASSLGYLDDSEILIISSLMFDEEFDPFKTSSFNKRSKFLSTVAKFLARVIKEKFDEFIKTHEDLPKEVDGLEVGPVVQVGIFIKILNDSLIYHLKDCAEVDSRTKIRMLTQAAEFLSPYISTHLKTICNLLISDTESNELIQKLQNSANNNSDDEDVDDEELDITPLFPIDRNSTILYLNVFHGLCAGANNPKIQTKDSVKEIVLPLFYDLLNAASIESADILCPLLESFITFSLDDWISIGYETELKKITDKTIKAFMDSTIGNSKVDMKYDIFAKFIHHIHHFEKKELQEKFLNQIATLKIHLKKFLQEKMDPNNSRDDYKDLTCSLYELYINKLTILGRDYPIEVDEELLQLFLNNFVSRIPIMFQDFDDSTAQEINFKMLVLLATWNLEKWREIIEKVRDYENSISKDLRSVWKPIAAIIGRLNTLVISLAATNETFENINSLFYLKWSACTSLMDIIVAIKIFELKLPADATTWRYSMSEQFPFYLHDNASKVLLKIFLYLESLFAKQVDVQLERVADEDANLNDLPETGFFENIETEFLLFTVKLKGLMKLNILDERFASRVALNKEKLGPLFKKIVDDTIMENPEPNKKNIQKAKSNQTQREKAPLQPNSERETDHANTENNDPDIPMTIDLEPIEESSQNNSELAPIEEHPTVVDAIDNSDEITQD

B1: Wpl1, recombinant, His6-tagged (natural protein, S. cerevisiae (budding yeast), UniProt Q99359 1-647, looked up)
chain: MRAYGKRGPVLRTPFRSNKGLPSSSDVEFSDDDVNSVIPDVSSTISSSIADHPIEGLLDEPRKAQDSSSSFDGANEKPSSQLDSKRNDQNVKIITSSDTSMAFMKDEKLSAFNFLDGSKASKRKRRRTYQKHDANITSSIEPDVQDEDSITMHNEFESIRKIYNDINEFILKLPRADDDILNKMLENEMKMDDSIENNSIRTSKDKKYGKFRTILINKNKENEIMGEEVDQKANTLSLNNADNSNAEKEGLTSTNHYNELKNMGDTIKYQDDIEFLLSNSKSNDNTTVPINEYFKKLLNLSLMIINDEEFFQYAKRYFKKEIIKLSFAQFRSDFPELILLQGYLLHKVSESQSDFPPSFDNFSIELSKDDGKIRTKKNKHIKKLSHLNFEDFLRKTQFKTGLYYSLSLWEMHGNLSLDIIKRISILASNKDLFSRHVKTFIPLLEKLITASEFCHMYIEQPEMFDSLISNLNNQFKDMLDDDSLIKILILLTNMEVHNYTLWKEADMIFQSSMNTILESIHPLTDAKVDNILLHLGLCLNICSRENSRLKLDGKLWYDMKTIFVKMIRDGSDTENRLVQGLFYLNFSFLIKQRKENSNLDPGELNLLLVELEAFKSETSQFNEGISNKIEIALNYLKSIYTSERITI
notes: also called Rad61; His6-tagged Wpl1; source: E. coli BL21 (DE3) RIL, purified (Ni-NTA, gel filtration); not shown: His6, C-terminal, kept
B2: GST fused to the N-terminal region (aa 1–168) of Scc1 (domain or fragment, S. cerevisiae (budding yeast), UniProt Q12158 1-168, looked up)
chain: MVTENPQRLTVLRLATNKGPLAQIWLASNMSNIPRGSVIQTHIAESAKEIAKASGCDDESGDNEYITLRTSGELLQGIVRVYSKQATFLLTDIKDTLTKISMLFKTSQKMTSTVNRLNTVTRVHQLMLEDAVTEREVLVTPGLEFLDDTTIPVGLMAQENSMERKVQG
notes: Scc1 of budding yeast, N-terminal region, aa 1–168; The methods' sentence on C-terminal His6 tags follows the list of constructs; whether it also holds for the GST fusions is not clear; also called N-terminal region of Scc1; Scc1 N-terminus
B3: GST fused to the C-terminal region (aa 338–566) of Scc1 (domain or fragment, S. cerevisiae (budding yeast), UniProt Q12158 338-566, looked up)
chain: IASSNTYKEERSNNLLTPQPTNFTTKRLWSEITESMSYLPDPILKNFLSYESLKKRKIHNGREGSIEEPELNVSLNLTDDVISNAGTNDNSFNELTDNMSDFVPIDAGLNEAPFPEENIIDAKTRNEQTTIQTEKVRPTPGEVASKAIVQMAKILRKELSEEKEVIFTDVLKSQANTEPENITKREASRGFFDILSLATEGCIGLSQTEAFGNIKIDAKPALFERFINA
notes: Scc1 of budding yeast, C-terminal region, aa 338–566; The methods' sentence on C-terminal His6 tags follows the list of constructs; whether it also holds for the GST fusions is not clear; also called C-terminal part of Scc1; Scc1 C-terminus

How the values were obtained:
[1] = target: T1, GST fused to the N-terminal region (aa …); assay: GST pull-down; Pds5 present: Wpl1 bound as Pds5/Wpl1 complex (Wpl1, Scc3 and Pds5 premixed); direct Wpl1-Scc1 binding alone not reported in text
[2] = target: T2, GST fused to the C-terminal region (aa …); assay: GST pull-down; Scc3 present: Wpl1 bound as Scc3/Wpl1 complex (Wpl1, Scc3 and Pds5 premixed); direct Wpl1-Scc1 binding alone not reported in text
[3] = target: T3, Pds5, recombinant, His6-tagged; assay: co-sedimentation; 10–30% glycerol gradient; 10 mM HEPES-KOH pH 7.5, 75 mM NaCl, 0.25 mM EDTA; proteins mixed and preincubated 1 h at 4°C; 38000 rpm, 38 h, 4°C, SW40 Ti; fractions on Coomassie-stained SDS-PAGE; conditions: both partners purified
[4] = target: T3, Pds5, recombinant, His6-tagged; assay: pull-down; GST fusions of Scc1 regions on glutathione-agarose beads; His6-tagged Wpl1, Scc3 and Pds5 mixed together and pre-incubated 30 min at 4°C, then with beads 2 h at 4°C; 20 mM HEPES pH 7.5, 100 mM NaCl, 5% glycerol, 5 mM 2-mercaptoethanol; washes with 0.5% NP-40; Western blot with Penta-His antibody; conditions: both partners purified
[5] = target: B1; assay: as above; conditions: both partners purified
[6] = target: T4, Scc3, recombinant, His6-tagged; assay: as above; conditions: both partners purified

Row | Binder | binding result [1] | binding result [2] | binding result [3] | binding result [4] | binding result [5] | binding result [6]
1 | B1 | binds | binds | binds |  |  | 
2 | B2 |  |  |  | binds | binds | 
3 | B3 |  |  |  |  | binds | binds

From article PMC3415457, “Cohesin Rings Devoid of Scc3 and Pds5 Maintain Their Stable Association with the DNA” (PLoS Genetics, 2012)
